Source: PMC5130146 (Nature structural & molecular biology, 2016)
Read-outs that look alike come from different tables or passages of the source.

Key:
Experiment in all cases: ITC
[1] = target: AP2 µ2 C-terminal subdomain (C-µ2), residues 160-435 of rat µ2 (rat) (UniProt P84092)
[2] = target: T1, AP2 µ2 C-terminal subdomain (C-µ2), residues 160-435 of rat µ2 (rat, UniProt P84092 160-435)
T1 sequence: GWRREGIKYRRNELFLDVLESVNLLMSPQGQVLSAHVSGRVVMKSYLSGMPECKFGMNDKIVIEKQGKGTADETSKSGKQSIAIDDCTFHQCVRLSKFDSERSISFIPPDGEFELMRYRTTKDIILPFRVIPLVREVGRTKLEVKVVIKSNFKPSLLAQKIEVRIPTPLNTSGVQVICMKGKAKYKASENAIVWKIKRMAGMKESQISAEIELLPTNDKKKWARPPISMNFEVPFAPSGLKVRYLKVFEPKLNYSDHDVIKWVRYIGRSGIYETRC

[3] = target: T1, AP2 µ2 C-terminal subdomain (C-µ2), …; remark: listed apart in the source

For EGFR peptide (FYRLMS), the Kd [1] was 20 µM.

With integrin α4 peptide (QYKSILQE) the Kd [1] was 72 µM.

B1: transferrin receptor peptide (SYTRFS) (peptide)
peptide: SYTRFS
B1 was tested, and the Kd [2] was roughly 15 µM.

B2: β1-integrin peptide (peptide)
peptide: KLLMIIHDRREFAKFEKEKMNAKWDTGENPIYKSAVTTVVNPKYEGK
For B2, the Kd [3] was greater than 300 µM.

B3: TGN38 peptide (DYQRLN) (peptide)
peptide: DYQRLN
B3 showed a Kd [2] of roughly 4 µM.

B4: α5-integrin peptide (YKLGFFKRSLPYGTAMEKAQLKPPATSDA) (peptide)
peptide: YKLGFFKRSLPYGTAMEKAQLKPPATSDA
Molecule B4 has a Kd [3] greater than 300 µM.

B5: α2 integrin peptide (WKLGFFKRKYEKMTKNPDEIDETTELSS) (peptide)
peptide: WKLGFFKRKYEKMTKNPDEIDETTELSS
For B5, the Kd [3] was roughly 50 µM.
